The text below walks through data of the RNAGym collection of RNA variant scans (doi:10.7554/elife.80360).

To fix the notation:
B1: HDV Ribozyme (parent)
chain: GGCCGGCAUGGUCCCAGCCUCCUCGCUGGCGCCGGCUGGGCAACAUUCCGAGGGGACCGUCCCCUCGGUAAUGGCGAAUGGGACCCA

The data set covers variants of B1. The data set can be described thus: self-cleavage, relative activity (ratio to wild type); higher = more cleavage; co-transcriptional.
Turning to A42C C57G, the self-cleavage amounted to 0.237.

Take A42U C86U: the self-cleavage was 0.58.

A42G C66U: the self-cleavage is 0.591.

Take C41U C44U: the self-cleavage was determined as 0.516.

In the case of A42C U46G, the self-cleavage was 0.166.

On to A42C U46A, for which the self-cleavage is 0.107.

For A43C A45C, the self-cleavage is 0.415.

Regarding A43C A45G, the self-cleavage is 0.643.

For C41U U69A, the self-cleavage was 1.08.

For C41U U69G, the self-cleavage was found to be 0.946.

A42G C85U: the self-cleavage was 0.767.

With A42G C85A, the self-cleavage came to 0.745.

C41U C61U: the self-cleavage was 0.946.

Turning to A43C, the self-cleavage was found to be 0.498.

Regarding C41U G81A, the self-cleavage came to 0.237.

As for C41U G81U, the self-cleavage turned out to be 0.205.

As for C41U G81C, the self-cleavage was found to be 0.168.

Turning to A43C C58G, the self-cleavage stood at 0.443.

Take A43C C58U: the self-cleavage is 0.671.

Turning to A43C G80A, the self-cleavage is 0.124.

For the variant C41U G54U, the self-cleavage amounted to 0.931.

As for C41U G54C, the self-cleavage was found to be 0.63.

A43C G76U: the self-cleavage is 0.95.

Turning to A43C G76C, the self-cleavage was 0.604.

Turning to A42C G82A, the self-cleavage amounted to 0.107.

As to A42C G82U, the self-cleavage turned out to be 0.138.

Consider A42C G82C, for which the self-cleavage was determined as 0.

With A42G U60A, the self-cleavage came out at 0.302.

Consider A42G U60C, for which the self-cleavage turned out to be 0.617.

Take A42G U60G: the self-cleavage was determined as 0.639.

On to A42C G76C, for which the self-cleavage was found to be 0.277.

A42C G76A: the self-cleavage was 0.113.

A43C C66G: the self-cleavage was 0.364.

With A43C C66U, the self-cleavage came to 0.306.

As to A43C C66A, the self-cleavage worked out at 0.302.

With A42C C58A, the self-cleavage came out at 0.364.

With A43C A71G, the self-cleavage was 0.762.

On to A42U C75U, for which the self-cleavage is 0.0665.

As for A42U C75G, the self-cleavage was 0.125.

With A42G A56G, the self-cleavage is 0.516.

As to A42G A56C, the self-cleavage is 0.54.

As for A42G A56U, the self-cleavage amounted to 0.698.

Regarding A43C G55U, the self-cleavage is 0.748.

On to A42G A77G, for which the self-cleavage turned out to be 0.208.

For the variant A42U C49G, the self-cleavage came out at 0.312.

For A42U C49A, the self-cleavage came to 0.53.

For C41U A71U, the self-cleavage was 0.897.

Consider A42G G59C, for which the self-cleavage was found to be 0.703.

As to A42C G50C, the self-cleavage was determined as 0.375.

With A42C G50U, the self-cleavage was determined as 0.386.

With A42U C62G, the self-cleavage came to 0.6.

Take A42U C62A: the self-cleavage is 0.618.

For the variant A43C C84U, the self-cleavage turned out to be 0.135.

Consider A42U U46G, for which the self-cleavage was 0.287.

As to A42U U46C, the self-cleavage amounted to 0.45.

For A42C C63G, the self-cleavage amounted to 0.208.

With A42C C63A, the self-cleavage amounted to 0.277.

On to A42G A78U, for which the self-cleavage came to 0.162.

As to A43C A70G, the self-cleavage was determined as 0.643.

For A42C C62G, the self-cleavage amounted to 0.0898.

On to A42C C62U, for which the self-cleavage worked out at 0.157.

Take A42C U69A: the self-cleavage came to 0.156.

A43C C64A: the self-cleavage turned out to be 0.38.

A43C C64U: the self-cleavage was 0.391.

As to A43C G74U, the self-cleavage was 0.415.

As to A43C G74A, the self-cleavage amounted to 0.509.

On to A43C G74C, for which the self-cleavage came out at 0.0811.

For the variant A42U A77C, the self-cleavage was 0.0519.

For the variant C41U G59A, the self-cleavage came out at 1.

In the case of C41U G59U, the self-cleavage came to 0.937.

Turning to C41U G59C, the self-cleavage was 0.963.

In the case of A42G G55U, the self-cleavage came to 0.354.

In the case of A42U G59A, the self-cleavage came to 0.845.

In the case of A42U G59C, the self-cleavage came out at 0.422.

For A42U G59U, the self-cleavage is 0.595.

For C41U G50U, the self-cleavage was 0.933.

For C41U G50C, the self-cleavage stood at 0.67.

With C41U G50A, the self-cleavage is 1.01.

As for A42G U46G, the self-cleavage came to 0.0875.

In the case of A42U C64A, the self-cleavage stood at 0.639.

For the variant A42G U47G, the self-cleavage is 0.7.

As for C41U C58A, the self-cleavage is 0.962.

On to C41U C58G, for which the self-cleavage was 0.889.

For the variant A42C C84A, the self-cleavage was 0.17.

With A42U G80U, the self-cleavage was 0.138.

As for A42U G80C, the self-cleavage came out at 0.166.

Take A42G U69C: the self-cleavage is 0.462.

Turning to C41U C63G, the self-cleavage came out at 0.739.

Turning to A42U A71G, the self-cleavage amounted to 0.431.

As for A42U A71C, the self-cleavage is 0.342.

In the case of A42C G53A, the self-cleavage is 0.289.

Turning to A42G C86G, the self-cleavage was 0.597.

In the case of A42G C86A, the self-cleavage came to 0.697.

For A42G C86U, the self-cleavage worked out at 0.697.

Consider A43C C63G, for which the self-cleavage was found to be 0.185.

Turning to A42G A43G, the self-cleavage was 0.

For A42G A43C, the self-cleavage turned out to be 0.158.

As to A42G A43U, the self-cleavage turned out to be 0.185.

As for A42G U79A, the self-cleavage was determined as 0.573.

For A42G A71U, the self-cleavage was determined as 0.502.

For C41U U72A, the self-cleavage worked out at 0.656.

With C41U U72C, the self-cleavage stood at 0.375.

In the case of C41U U72G, the self-cleavage is 0.534.

Regarding A42G C49G, the self-cleavage turned out to be 0.358.

As for A42G C49U, the self-cleavage is 0.489.

For A42G C49A, the self-cleavage stood at 0.302.

On to A43C C49U, for which the self-cleavage came out at 0.684.

In the case of A43C C49A, the self-cleavage was determined as 0.172.

Consider C41U C86G, for which the self-cleavage turned out to be 0.784.

Turning to C41U C86A, the self-cleavage is 1.04.

As to C41U C84A, the self-cleavage stood at 0.78.

A42G G82C: the self-cleavage was determined as 0.0396.

Turning to A42G G82U, the self-cleavage amounted to 0.0504.

Consider A42U G82C, for which the self-cleavage was 0.264.

Turning to A42U G82U, the self-cleavage amounted to 0.102.

In the case of A43C A83C, the self-cleavage amounted to 0.332.

For A43C A83G, the self-cleavage was determined as 0.0923.

As for A43C A83U, the self-cleavage turned out to be 0.161.

For the variant A42G, the self-cleavage is 0.562.

With A42C, the self-cleavage was determined as 0.333.

In the case of A42U, the self-cleavage came to 0.529.

Turning to A42C U60G, the self-cleavage was 0.269.

For A42C U60A, the self-cleavage worked out at 0.189.

With A42C U60C, the self-cleavage came out at 0.35.

In the case of C41U G76A, the self-cleavage was found to be 0.95.

Regarding A42U A83G, the self-cleavage was 0.177.

As to A42U A83C, the self-cleavage turned out to be 0.119.

In the case of A42U A83U, the self-cleavage was determined as 0.142.

C41U A56G: the self-cleavage is 0.7.

Regarding C41U A56U, the self-cleavage amounted to 1.09.

C41U A87G: the self-cleavage stood at 0.961.

For C41U A87C, the self-cleavage amounted to 1.09.

In the case of A42U G73C, the self-cleavage was 0.267.

For the variant A42G C57U, the self-cleavage was found to be 0.527.

Consider A42G C62U, for which the self-cleavage worked out at 0.808.

Regarding A42G C62A, the self-cleavage stood at 0.35.

For A42C A77G, the self-cleavage amounted to 0.156.

Regarding C41U C48A, the self-cleavage came to 1.07.

A43C C62G: the self-cleavage stood at 0.322.

Consider A43C C62A, for which the self-cleavage worked out at 0.415.

Regarding A43C C62U, the self-cleavage came out at 0.508.

As to A43C A87C, the self-cleavage is 0.407.

Consider A43C A87G, for which the self-cleavage was found to be 0.306.

Consider A42U G68C, for which the self-cleavage was 0.397.

Consider A42U G68U, for which the self-cleavage was found to be 0.162.

For A42U G68A, the self-cleavage was determined as 0.407.

For the variant A42U A43U, the self-cleavage stood at 0.604.

On to A42U A43C, for which the self-cleavage was 0.208.

In the case of A42G C75G, the self-cleavage turned out to be 0.

C41U G53U: the self-cleavage came to 1.1.

Take C41U G53C: the self-cleavage turned out to be 1.05.

As to A42C G73U, the self-cleavage was 0.0791.

Consider A42C A70C, for which the self-cleavage is 0.0875.

For the variant A42C A70U, the self-cleavage was found to be 0.312.

With C41U A77G, the self-cleavage was determined as 0.95.

C41U A77U: the self-cleavage came to 0.475.

Consider C41U A77C, for which the self-cleavage amounted to 0.341.

For the variant A43C G54C, the self-cleavage is 0.403.

On to A43C A78G, for which the self-cleavage came to 0.0978.

In the case of A43C A78C, the self-cleavage came out at 0.0723.

As for A42U C48U, the self-cleavage was determined as 0.506.

Regarding A42U C48A, the self-cleavage is 0.485.

Consider A42C G80A, for which the self-cleavage was 0.234.

On to A42C G80U, for which the self-cleavage was 0.219.

For the variant A42C U79G, the self-cleavage came out at 0.151.

For A42C U47A, the self-cleavage worked out at 0.0594.

Take C41U G80A: the self-cleavage is 0.283.
